Legend:
[1] = molecular target: human nucleolin (His-tag fusion protein) (human, UniProt P19338 1-710); assay: SPR; fibrillarin analyte, nucleolin immobilized
[2] = molecular target: T1, full-length human PQBP5 (His-tag fusion protein) (human, UniProt Q9BSC4-1 1-688); assay: SPR; fibrillarin analyte, PQBP5 immobilized
T1 chain: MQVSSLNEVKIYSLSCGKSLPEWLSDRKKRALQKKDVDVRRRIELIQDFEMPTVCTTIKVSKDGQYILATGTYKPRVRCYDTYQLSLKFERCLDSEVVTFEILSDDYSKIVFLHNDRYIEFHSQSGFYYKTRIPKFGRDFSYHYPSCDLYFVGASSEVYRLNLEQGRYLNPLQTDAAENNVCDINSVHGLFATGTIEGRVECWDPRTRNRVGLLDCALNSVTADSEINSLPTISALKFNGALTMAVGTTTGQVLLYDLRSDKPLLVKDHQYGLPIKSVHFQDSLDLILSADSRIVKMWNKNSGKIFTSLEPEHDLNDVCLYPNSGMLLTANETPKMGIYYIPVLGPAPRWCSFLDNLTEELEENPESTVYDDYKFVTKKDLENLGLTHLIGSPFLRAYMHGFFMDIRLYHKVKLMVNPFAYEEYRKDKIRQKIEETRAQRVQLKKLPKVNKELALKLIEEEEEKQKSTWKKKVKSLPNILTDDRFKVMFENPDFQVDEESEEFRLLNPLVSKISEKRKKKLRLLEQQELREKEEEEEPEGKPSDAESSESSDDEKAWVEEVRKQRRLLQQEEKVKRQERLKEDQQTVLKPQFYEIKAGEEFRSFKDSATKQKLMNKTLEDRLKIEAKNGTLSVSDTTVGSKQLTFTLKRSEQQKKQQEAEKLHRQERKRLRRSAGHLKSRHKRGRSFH

Chain of human nucleolin (His-tag fusion protein) (P19338 whole entry, the tested form may be a part): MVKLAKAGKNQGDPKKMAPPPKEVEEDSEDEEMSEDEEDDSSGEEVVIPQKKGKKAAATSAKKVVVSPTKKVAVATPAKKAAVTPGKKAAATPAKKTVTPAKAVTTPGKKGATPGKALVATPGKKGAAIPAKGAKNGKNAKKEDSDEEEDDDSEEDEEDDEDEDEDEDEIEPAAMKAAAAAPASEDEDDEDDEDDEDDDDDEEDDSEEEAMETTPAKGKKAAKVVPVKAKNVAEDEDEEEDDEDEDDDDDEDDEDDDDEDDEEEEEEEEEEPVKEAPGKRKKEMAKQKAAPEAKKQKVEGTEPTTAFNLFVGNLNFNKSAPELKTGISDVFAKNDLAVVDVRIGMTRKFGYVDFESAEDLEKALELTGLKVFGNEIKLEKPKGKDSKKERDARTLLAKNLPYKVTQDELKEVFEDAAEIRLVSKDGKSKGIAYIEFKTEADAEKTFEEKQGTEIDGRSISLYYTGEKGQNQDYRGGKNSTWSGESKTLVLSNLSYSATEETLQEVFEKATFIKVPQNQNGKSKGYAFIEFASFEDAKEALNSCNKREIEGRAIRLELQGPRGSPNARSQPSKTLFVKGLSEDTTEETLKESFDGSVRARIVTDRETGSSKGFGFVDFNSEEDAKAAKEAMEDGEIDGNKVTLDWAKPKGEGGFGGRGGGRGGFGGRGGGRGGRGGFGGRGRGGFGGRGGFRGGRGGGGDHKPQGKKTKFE

B1: human fibrillarin (His-tag fusion protein) (natural protein)
chain: MKPGFSPRGGGFGGRGGFGDRGGRGGRGGFGGGRGRGGGFRGRGRGGGGGGGGGGGGGRGGGGFHSGGNRGRGRGGKRGNQSGKNVMVEPHRHEGVFICRGKEDALVTKNLVPGESVYGEKRVSISEGDDKIEYRAWNPFRSKLAAAILGGVDQIHIKPGAKVLYLGAASGTTVSHVSDIVGPDGLVYAVEFSHRSGRDLINLAKKRTNIIPVIEDARHPHKYRMLIAMVDVIFADVAQPDQTRIVALNAHTFLRNGGHFVISIKANCIDSTASAEAVFASEVKKMQQENMKPQEQLTLEPYERDHAVVVGVYRPPPKVKN
Kd [1]: 2.78 nM | Kd [2]: 10 nM
